The target of this test is T1, LP226 (human, UniProt Q6WN34 26-429, limits assumed).
T1 construct: Secreted chordin-like protein; the cleavage site was not determined by experiment; also called LP226 polypeptide; LP polypeptide
T1 sequence: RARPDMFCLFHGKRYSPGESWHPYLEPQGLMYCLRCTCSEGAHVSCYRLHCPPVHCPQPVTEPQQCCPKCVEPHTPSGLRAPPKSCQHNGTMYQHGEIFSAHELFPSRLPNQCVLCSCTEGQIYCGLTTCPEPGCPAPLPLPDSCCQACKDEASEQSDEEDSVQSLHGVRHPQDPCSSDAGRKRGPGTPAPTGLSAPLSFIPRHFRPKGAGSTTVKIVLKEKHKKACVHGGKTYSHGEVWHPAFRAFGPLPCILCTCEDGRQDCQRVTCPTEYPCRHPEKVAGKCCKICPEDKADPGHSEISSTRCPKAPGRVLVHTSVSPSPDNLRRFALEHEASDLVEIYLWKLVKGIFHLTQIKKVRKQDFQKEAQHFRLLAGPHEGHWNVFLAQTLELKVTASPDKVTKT
In words: BIAcore 2000 SPR, LP226 amine-coupled to CM5 chip, ligand injected. The protocol:
A BIAcore 2000 instrument is used to detect real-time binding between immobilized LP226 and various TGF-beta and BMP proteins. LP226 is diluted to a concentration of […] in 10 mM sodium acetate buffer at pH 5.0. LP226 is immobilized to a CM5 sensor chip using the amine coupling method. Follistatin, containing BSA, is immobilized as a positive control.
TGF-beta and BMP proteins are diluted in HBS-EP buffer. Samples are injected over LP226 and control surfaces using the kinject method. Samples containing 5 µg/mL and 1 μg/mL of protein are injected at 30 μL/min for three minutes with a ninety second dissociation time. LP226 and control surfaces are then regenerated with glycine-hydrochloride at pH 3.0.
(In SPR one partner is held on a chip, and binding of the other changes the refractive index at the surface.)

B1: BMP-6 (ligand, UniProt P22004 382-513, looked up)
chain: QQSRNRSTQSQDVARVSSASDYNSSELKTACRKHELYVSFQDLGWQDWIIAPKGYAANYCDGECSFPLNAHMNATNHAIVQTLVHLMNPEYVPKPCCAPTKLNAISVLYFDDNSNVILKKYRNMVVRACGCH
B1: the binding result is “no binding (tested: 5 g/mL and 1 µg/mL)”.

B2: BMP-5 (ligand, UniProt P22003 317-454, looked up)
chain: AANKRKNQNRNKSSSHQDSSRMSSVGDYNTSEQKQACKKHELYVSFRDLGWQDWIIAPEGYAAFYCDGECSFPLNAHMNATNHAIVQTLVHLMFPDHVPKPCCAPTKLNAISVLYFDDSSNVILKKYRNMVVRSCGCH
Consider B2, for which the binding result is “no binding (tested: 5 g/mL and 1 µg/mL)”.

B3: fas-ligand (ligand, UniProt P48023 134-281, looked up)
chain: PSPPPEKKELRKVAHLTGKSNSRSMPLEWEDTYGIVLLSGVKYKKGGLVINETGLYFVYSKVYFRGQSCNNLPLSHKVYMRNSKYPQDLVMMEGKMMSYCTTGQMWARSSYLGAVFNLTSADHLYVNVSELSLVNFEESQTFFGLYKL
notes: Negative control injected over the LP226 surface; also called negative control
Regarding B3, the binding result was “no binding”.

Source of the values: patent US20030215913A1 (published 2003).
